# Source: patent US6844318B2, “Peptidase-cleavable, targeted antineoplastic drugs and their therapeutic use” (priority 2000, dated 2005)
# Where two headings read alike, the source gives them in different places. Residues, ends and D or L forms follow the SMILES beside them. *: point of attachment. Doxorubicin(3'-N) = COc1cccc2c1C(=O)c1c(O)c3c(c(O)c1C2=O)C[C@@](O)(C(=O)CO)C[C@@H]3O[C@H]1C[C@H](N*)[C@H](O)[C@H](C)O1
# Assays:
# [1] = Stability of conjugates in Hepes buffer (control of blood stability test); assay type: physicochemical; conditions: Hepes buffer pH 7.5, 10 μmolar, 37° C.
# Method: (§1) The stability of doxorubicin conjugated peptides in human or nude mouse blood was evaluated by reverse phase HPLC with fluorescence detection after an 80% acetonitrile extraction. Individual peptides are prepared as 60 μmolar solutions in Hepes buffer pH 7.5 (50 mM), with CaCl2 (10 mM), Brij-35 (0.1%), followed by dilution to 10 μmolar in fresh heparinized whole blood or buffer. Solutions are incubated (37° C.) with slow continuous rocking. 50 μl reactions are terminated at designated times ranging from 1 minute to 24 hours by vortexing into 200 μl acetonitrile. After a brief centrifugation (1 min, 14,000×g) to pellet the precipitate, the acetonitrile is collected and evaporated to dry under a flow of nitrogen. Extracted samples are resuspended in 50 μl acetonitrile, followed by 100 μl distilled H2O, and transferred to HPLC autoinjector vials. Samples are chromatographed using a Nova-Pak C18 column (3.9×150 mm; WAT086344, Waters Corp. Milford, Ma), with a 12 minute linear gradient from 33.3 to 77.7% acetonitrile, 0.1% TFA, using a flow rate of 1 ml/min. A scanning fluorescence detector (# 474, Waters Corp) monitoring 480 nm excitation, 580 nm emission quantitates AUC of peaks of interest; mass is extrapolated from a standard curve generated under matching conditions.
# [2] = Stability of conjugates in human blood; assay type: in vitro ADME; conditions: fresh heparinized whole human blood, 37° C., read-out: Conjugate Stability in Blood After 5.5 Hours (Percent of Control (In Buffer, T = 0)), Human Blood
# Method: as §1
# [3] = Stability of conjugates in nude mouse blood; assay type: in vitro ADME; conditions: fresh heparinized whole nude mouse blood, 37° C., read-out: Conjugate Stability in Blood After 5.5 Hours (Percent of Control (In Buffer, T = 0)), Nude Mouse Blood
# Method: as §1
# [4] = system: HT1080 cells; experiment: cells; assay type: cell-based
# Method: The conjugates were tested for cytotoxic effect against the HT1080 cell line, which expresses multiple MMPs. […] HT 1080 cells in culture have significant levels of MMPs 2, 9, and 14 and are consequently especially suitable for the evaluation of conjugates that are substrates for that enzyme.
# The cell line was grown in tissue MEM with Earl's salts containing 10% fetal bovine serum (FBS). On day one, 500 cells were seeded into 96 well plates in 200 ul of cell culture medium that containing 10% FBS which had been stripped of bovine gelatinases by prior passage over a gelatin-sepharose column. On day two, peptidyl-Doxorubicin conjugates and Doxorubicin as a control were added to the plates. The cells were incubated for three days at 37° C., 5% CO2 in a tissue culture cell incubator. MTS reagent was added to each microplate well using the manufacturer's instructions […]. The plates were incubated for 2 hours at 37° C., 5% CO2. The plates were read on a Molecular Devices Spectropmax 250 plate reader at […]. The viability of the cells in each well was then calculated for each concentration of compound tested and compared to the control wells where no compound was added.
# [5] = cited from earlier work
# [6] = biological target: PSA protease (Homo sapiens, UniProt P07288); conditions: cited from earlier work
# [7] = system: prostate tumor cells; conditions: cited from earlier work
# [8] = mice; cited from earlier work
# [9] = Phase I trial, in the tumor tissue; cited from earlier work
# [10] = system: human ovarian tumor xenograft; conditions: equitoxic doses; cited from earlier work
# [11] = system: HT1080 cells; experiment: Analysis of processing by HT1080 cultures (HPLC); assay type: cell-based
# Method: Actively growing HT1080 cells are seeded in a 12 well plate at 2×10^5 cells per well in DMEM with 10% serum. On the next day, media is removed and cells are washed twice with PBS. 1.5 of DMEM containing 0.1% BSA, […] Ac-PLG-HofK(Me2)L-Dox (SEQ ID NO: 127) and 40 nM PMA is then added to each well. A broad spectrum MMP inhibitor is added to some samples so that the amount of processing that is due to MMPs can be determined. At the indicated times, 0.1 ml aliquots are removed, added to 0.4 ml acetonitrile, vortexed, and centrifuged for 2 minutes. 0.4 of cleared supernatant is removed and dried using a nitrogen stream. The dried pellet is suspended in 0.12 ml of HPLC Buffer A and analyzed as in Example 1000.
# At the times used in this experiment, the only detectable metabolite is L-Dox. HofK(Me2)L-Dox and K(Me2)L-Dox are not detected since they are rapidly converted to L-Dox. At later times, Dox is formed from L-Dox.
# [12] = HT1080 cells, three days, MTS, read-out: EC50
# Chain of PSA protease (P07288 25-261): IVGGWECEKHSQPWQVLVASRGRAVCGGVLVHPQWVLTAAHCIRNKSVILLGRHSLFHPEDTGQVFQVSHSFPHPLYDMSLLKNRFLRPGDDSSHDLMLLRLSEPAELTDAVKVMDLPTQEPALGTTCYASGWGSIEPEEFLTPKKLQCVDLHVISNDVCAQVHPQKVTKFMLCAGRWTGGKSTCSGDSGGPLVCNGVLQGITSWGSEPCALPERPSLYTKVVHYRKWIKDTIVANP
Compound,"Conjugate Stability After 5.5 Hours (Percent of Control (In Buffer, T = 0)), Buffer [1]","remaining at 5.5 h, 10 μmolar [2]","remaining at 5.5 h, 10 μmolar [3]",further results
COc1cccc2c1C(=O)c1c(O)c3c(c(O)c1C2=O)C[C@@](O)(C(=O)CO)C[C@@H]3O[C@H]1C[C@H](NC(=O)[C@H](CC(C)C)NC(=O)CNC(=O)[C@H](CC(C)C)NC(=O)[C@@H]2CCCN2C(=O)CNC(C)=O)[C@H](O)[C@H](C)O1 [Ac-GPLG-L-Dox] (Ac-GPLGL-{Doxorubicin(3'-N)}),106%,10.2%,5.9%,–
"COc1cccc2c1C(=O)c1c(O)c3c(c(O)c1C2=O)C[C@@](O)(C(=O)CO)C[C@@H]3O[C@H]1C[C@H](NC(=O)[C@H](CC(C)C)NC(=O)[C@H](C)NC(=O)[C@H](CC(C)C)NC(=O)CNC(=O)[C@H](CC(C)C)NC(=O)[C@@H]2CCCN2C(=O)CNC(C)=O)[C@H](O)[C@H](C)O1 [Ac-GPLG-LAL-Dox, acetyl-G-P-L-G-L-A-L-Dox] (Ac-GPLGLAL-{Doxorubicin(3'-N)})",92.2%,15.4%,5.8%,–
"COc1cccc2c1C(=O)c1c(O)c3c(c(O)c1C2=O)C[C@@](O)(C(=O)CO)C[C@@H]3O[C@H]1C[C@H](NC(=O)[C@H](CC(C)C)NC(=O)[C@H](CC(C)C)NC(=O)CNC(=O)[C@H](CC(C)C)NC(=O)[C@@H]2CCCN2C(=O)CNC(C)=O)[C@H](O)[C@H](C)O1 [Ac-GPLG-LL-Dox, acetyl-G-P-L-G-L-L-Dox] (Ac-GPLGLL-{Doxorubicin(3'-N)})",105%,42.6%,25.8%,–
"COc1cccc2c1C(=O)c1c(O)c3c(c(O)c1C2=O)C[C@@](O)(C(=O)CO)C[C@@H]3O[C@H]1C[C@H](NC(=O)[C@H](CC(C)C)NC(=O)CNC(=O)[C@H](CC(C)C)NC(=O)[C@@H]2CCCN2C(C)=O)[C@H](O)[C@H](C)O1 [Ac-PLG-L-Dox, Ac-PLGL-Dox] (Ac-PLGL-{Doxorubicin(3'-N)})",99.2%,74.7%,68.2%,–
"COc1cccc2c1C(=O)c1c(O)c3c(c(O)c1C2=O)C[C@@](O)(C(=O)CO)C[C@@H]3O[C@H]1C[C@H](NC(=O)[C@H](CC(C)C)NC(=O)[C@H](C)NC(=O)[C@H](CC(C)C)NC(=O)CNC(=O)[C@H](CC(C)C)NC(=O)[C@@H]2CCCN2C(C)=O)[C@H](O)[C@H](C)O1 [Ac-PLG-LAL-Dox, acetyl-P-L-G-L-A-L-Dox] (Ac-PLGLAL-{Doxorubicin(3'-N)})",96.8%,49.1%,9%,"EC50 [4, 12]: < 10 µM"
"COc1cccc2c1C(=O)c1c(O)c3c(c(O)c1C2=O)C[C@@](O)(C(=O)CO)C[C@@H]3O[C@H]1C[C@H](NC(=O)[C@H](CC(C)C)NC(=O)[C@H](CC(C)C)NC(=O)CNC(=O)[C@H](CC(C)C)NC(=O)[C@@H]2CCCN2C(C)=O)[C@H](O)[C@H](C)O1 [Ac-PLG-LL-Dox, Acetyl-P-L-G-L-L-Dox] (Ac-PLGLL-{Doxorubicin(3'-N)})",106%,87.2%,63.8%,"EC50 [4, 12]: < 10 µM"
"COc1cccc2c1C(=O)c1c(O)c3c(c(O)c1C2=O)C[C@@](O)(C(=O)CO)C[C@@H]3O[C@H]1C[C@H](NC(=O)[C@H](CC(C)C)NC(=O)[C@H](C)NC(=O)[C@H](CC(C)C)NC(=O)[C@H](CC(C)C)NC(=O)CNC(=O)[C@H](CC(C)C)NC(=O)[C@@H]2CCCN2C(C)=O)[C@H](O)[C@H](C)O1 [Ac-PLG-LLAL-Dox, acetyl -P-L-G-L-L-A-L-Dox] (Ac-PLGLLAL-{Doxorubicin(3'-N)})",102.0%,55.6%,19.2%,EC50 [4]: < 10 µM
"COc1cccc2c1C(=O)c1c(O)c3c(c(O)c1C2=O)C[C@@](O)(C(=O)CO)C[C@@H]3O[C@H]1C[C@H](NC(=O)[C@H](CC(C)C)NC(=O)[C@H](C)NC(=O)[C@H](Cc2ccc(O)cc2)NC(=O)[C@H](CC(C)C)NC(=O)CNC(=O)[C@H](CC(C)C)NC(=O)[C@@H]2CCCN2C(C)=O)[C@H](O)[C@H](C)O1 [Ac-PLG-LYAL-Dox, acetyl -P-L-G-L-Y-A-L-Dox] (Ac-PLGLYAL-{Doxorubicin(3'-N)})",91.3%,37.5%,20%,"EC50 [4, 12]: < 10 µM"
"COc1cccc2c1C(=O)c1c(O)c3c(c(O)c1C2=O)C[C@@](O)(C(=O)CO)C[C@@H]3O[C@H]1C[C@H](NC(=O)[C@H](CC(C)C)NC(=O)[C@H](Cc2ccc(O)cc2)NC(=O)[C@H](CC(C)C)NC(=O)CNC(=O)[C@H](CC(C)C)NC(=O)[C@@H]2CCCN2C(C)=O)[C@H](O)[C@H](C)O1 [Ac-PLG-LYL-Dox, acetyl-P-L-G-L-Y-L-Dox] (Ac-PLGLYL-{Doxorubicin(3'-N)})",112%,90.1%,–,–
"COc1cccc2c1C(=O)c1c(O)c3c(c(O)c1C2=O)C[C@@](O)(C(=O)CO)C[C@@H]3O[C@H]1C[C@H](N)[C@H](O)[C@H](C)O1 [Doxorubicin, doxorubicin, reference compound]",–,–,–,"EC50 ([4]; Homo sapiens, HT-1080, 72 h, HT1080 cells, three days, MTS, read-out: EC50): 0.008 to 0.009 µM; cumulative dose in excess of which there is a substantial risk of cardiotoxicity and myelosuppression [5]: 500 to 550 mg doxorubicin/m^2"
"Ac-HSSKLQ-Leu-Dox: peptide-doxorubicin pro-drug targeted to the prostate-specific antigen (XSSKLQL; N-acetyl, Leu-doxorubicin conjugate)",–,–,–,substrate for the PSA protease [6]: is a substrate for the PSA protease; activity against prostate tumor cells which express the protease activity [7]: is active against prostate tumor cells
Leu-Dox,–,–,–,overall conversion of Leu-Dox to Dox [8]: approximately 20%; conversion of Leu-Dox to Dox [9]: approximately 25%; anti-tumor efficacy compared with free doxorubicin [10]: more effective anti-tumor agent than free doxorubicin
"acetyl-P-L-G-Hof-(N,N-dimethyl-K)-L-Dox (XLGXXL; non-natural residues) [Ac-PLG-HofK(Me2)L-Dox]",–,–,–,"Fraction of L-Dox ([11]; 0 hours, Minus MMP inhibitor): 0; Fraction of L-Dox ([11]; 0 hours, Plus MMP inhibitor): 0; Fraction of L-Dox ([11]; 3 hours, Minus MMP inhibitor): 0.10; Fraction of L-Dox ([11]; 3 hours, Plus MMP inhibitor): 0.004; Fraction of L-Dox ([11]; 5.5 hours, Minus MMP inhibitor): 0.20; Fraction of L-Dox ([11]; 5.5 hours, Plus MMP inhibitor): 0.01; Fraction of L-Dox ([11]; 8 hours, Minus MMP inhibitor): 0.46; Fraction of L-Dox ([11]; 8 hours, Plus MMP inhibitor): 0.02"
